From patent US12502562B2, “Human iPSC-derived brain organoids and uses thereof” (CITY OF HOPE, priority 2020, dated 2025)

Legend:
[1] = system: hiPSC-derived brain organoids; test: MEA recording of hiPSC-derived brain organoids with neuronal blockers; assay type: cell-based, human; conditions: uninfected brain organoids, blocker 10 μM applied immediately before recording
Method: (§1) Microelectrode Arrays (MEA). Brain organoids at day 45 of differentiation were partially dissociated and seeded onto 12-well transparent MEA plates at three brain organoids per well. Brain organoids were cultured in BrainPhys medium, including 1×B27, 1×N2, 20 ng/ml GDNF, 20 ng/ml BDNF, 500 μg/ml Dibutyryl-cAMP, 1× Glutamax, and 1× NEAA. MEA recordings were performed at 37° C. in a Maestro MEA system with AxIS software using a bandwidth with a filter for 10 Hz to 2.5 kHz cutoff frequencies. Spike detection was performed using an adaptive threshold set to 5.5 times of the standard deviation of the estimated noise on each electrode. For recordings, following a 5-minute resting time in the Maestro instrument, each plate was recorded for 10 minutes to calculate the spike rate per well. When a recording of 5 spikes over the length of 1 minute (5 spikes per minute) was obtained, the electrode was considered active. Individual electrode bursts were identified using an adaptive Poisson surprise algorithm, while network bursts were identified for each well using a non-adaptive algorithm requiring a minimum of 10 spikes with a maximum inter-spike interval of 100 ms. Multielectrode data analysis was performed using the Axion Biosystems NeuralMetrics Tool. Synchrony index was calculated by NeuralMetric Tool with synchrony window set as 20 ms. […]

[2] = system: HCMV TB40/E; test: Receptor-specific siRNA treatment of brain organoids followed by TB40/E infection; assay type: cell-based, Human cytomegalovirus; conditions: for GFP fluorescence of siRNA-treated infected brain organoids / growth kinetics of siRNA-treated infected brain organoids: siRNA for 4 days, then GFP-labeled TB40/E, up to 20 days post infection, compared to control siRNA; for susceptibility of brain organoids to TB40/E: siRNA-mediated knockdown, summary statement
Method: (§2) HCMV infection of brain organoids. Brain organoids at day 45 of differentiation were seeded in 24-well plates and exposed to 5×10^5 pfu/ml of HCMV virus for 24 hours. Following infection, 1 ml medium was replaced, and each organoid was placed in a single well for the duration of the experiment. At different time points post infection, each organoid was evaluated for GFP fluorescence intensity and organoid size in diameter using the same microscopy setting during each experiment.
RNA interference. Oligonucleotides for siRNA-mediated RNA interference were synthesized by […]. For RNA interference in brain organoids, four brain organoids with similar size were seeded in ultralow 24-well plates (one organoid per well) and transfected with siRNA using siLentFect. After 96 hours incubation, each organoid was infected with TB40/E at 5×10^5 pfu/ml. Medium was changed the following day. Brain organoids were cultured for 20 days on shaker with continuous medium change every 3-4 days.

[3] = system: HCMV TB40/E; test: Cortical layer structure of TB40/E-infected brain organoids by layer marker immunostaining; assay type: cell-based, Human cytomegalovirus; conditions: NAb 2000 ng/ml, compared to IgG control
Method: (§3) Brain organoid treatment with NAbs. 1B2 and 62-11 NAbs at final concentrations ranging from 3.2 ng/ml to 4000 ng/ml were incubated with 5×10^5 pfu/ml of HCMV for 1 hour at 37° C. and then transferred to brain organoid-containing wells. Normal mouse IgG was used as a control at the concentration of 2000 ng/ml. For proliferation assay, brain organoids were incubated with 10 μM BrdU for 2 hours and fixed in 4% paraformaldehyde (PFA) for 1 hour, followed by immunostaining.
Immunostaining. Cells on coverslip were fixed with 4% PFA in PBS for 15 minutes at room temperature. Brain organoids were fixed with 4% PFA for 1 hour and submerged in 30% sucrose overnight. The samples were embedded in OCT and sectioned at a thickness of 14 or 20 μm using Leica CM3050S. Cells or brain organoid sections were permeabilized and blocked with blocking solution (1×PBS containing 0.1% Triton X-100 and 5% normal donkey serum) for 1 hour. […]
(§4) Images were obtained with a Carl Zeiss LSM700 confocal microscope or Nikon Eclipse TE-2000-S microscope. Cortical layer thicknesses, brain organoid size and GFP fluorescence intensity of brain organoids were measured by Image J. For measuring the layer thickness, small rectangles were drawn to ensure two opposite sides to align with both layer marker dashed lines.

[4] = system: HCMV strain TR; test: HCMV TR infection of hiPSC-derived brain organoids in the presence of NAb; assay type: cell-based, Human cytomegalovirus; conditions: GFP-labeled TR, IMR90 iPSC-derived organoids at day 45 of differentiation
Method: as §2, §3, §4

[5] = system: HCMV TB40/E; test: HCMV TB40/E infection of hiPSC-derived brain organoids in the presence of NAbs (GFP fluorescence intensity, organoid size); assay type: cell-based, Human cytomegalovirus; conditions: for GFP fluorescence intensity of infected brain organoids / brain organoid growth kinetics (relative organoid size): GFP-labeled TB40/E, organoids at day 45 of differentiation, NAb 3.2-2000 ng/ml, up to 30 days post infection; for GFP fluorescence intensity of infected brain organoids / brain organoid growth kinetics (relative organoid size) / brain organoid size: compared to IgG control; for brain organoid size: TB40/E, 80-2000 ng/ml antibody; for prevention of HCMV infection of human brain organoids: summary statement
Method: as §2, §3, §4

[6] = system: HCMV infection of fibroblasts; conditions: cited from earlier work
[7] = system: HCMV infection of epithelial cells; conditions: cited from earlier work
[8] = system: HCMV TB40/E; test: MEA recording of neural network activity in TB40/E-infected brain organoids; assay type: cell-based, Human cytomegalovirus; conditions: 4000 ng/ml NAb, MEA recording 2 weeks post infection
Method: as §1

## N#Cc1cc2nc([O-])c([O-])nc2cc1[N+](=O)[O-].[Na+].[Na+] [CNQX, CNQX disodium salt]
[1]
  spontaneous, synchronized burst and spikes of the neuronal network (MEA): could be quenched

## EGFR-specific siRNA: siRNA specific for EGFR, sense SEQ ID NO: 1, antisense SEQ ID NO: 2 (sense GACGGCGUCCGCAAGUGUA; antisense UACACUUGCGGACGCCGUCUU; listed as RNA, chemistry not given here)
[2]
  GFP fluorescence of siRNA-treated infected brain organoids: no or very low GFP fluorescence
  growth kinetics of siRNA-treated infected brain organoids: substantially higher growth kinetics
  susceptibility of brain organoids to TB40/E: completely abrogated

## ITGA3-specific siRNA: siRNA specific for integrin α3, sense SEQ ID NO: 5, antisense SEQ ID NO: 6 (sense GCUACAUGAUUCAGCGCAA; antisense UUGCGCUGAAUCAUGUAGCUG; listed as RNA, chemistry not given here)
[2]
  GFP fluorescence of siRNA-treated infected brain organoids: similar
  growth kinetics of siRNA-treated infected brain organoids: similar

## ITGA5-specific siRNA: siRNA specific for integrin α5 (Dharmacon), sense SEQ ID NO: 7, antisense SEQ ID NO: 8 (sense GGGAACCUCACUUACGGCU; antisense AGCCGUAAGUGAGGUUCCCUU; listed as RNA, chemistry not given here) [reference compound]
[2]
  GFP fluorescence of siRNA-treated infected brain organoids: similar
  growth kinetics of siRNA-treated infected brain organoids: similar

## PDGFRα-specific siRNA: siRNA specific for PDGFRα, sense SEQ ID NO: 3, antisense SEQ ID NO: 4 (sense CCACCUUCAUCAAGAGAGA; antisense UCUCUCUUGAUGAAGGUGGAA; listed as RNA, chemistry not given here)
[2]
  GFP fluorescence of siRNA-treated infected brain organoids: no or very low GFP fluorescence
  growth kinetics of siRNA-treated infected brain organoids: substantially higher growth kinetics
  susceptibility of brain organoids to TB40/E: completely abrogated

B1: 1B2: Mouse monoclonal anti-CMV PC neutralizing antibody that targets the UL128/130/131A subunits of the PC (antibody, V domains shown)
VH: EVQLVESGGVLVKPGGSLKLSCAASGFTFSDYYMYWVRQTPEKRLEWVATISDDGNYTNYPDSVKGRFTISRDNAKNNLYLQMSSLKSEDTAMYYCARGWLLPVFAYWGQGTLVTVSA
VL: DIVLTQSPATLSVTPGDSVSLSCRASQSIGNNLHWYQQKSHESPRLLIKYTSQSISGIPSRFSGSGSGTDFTLNINSVETEDFGVYFCQQSNRWPWTFGGGTKLEIK
[3]
  thickness of the TBR2+SVZ and the CTIP2+CP layers: much thicker
[4]
  infection of brain organoids by TR and its effect on brain organoid growth: could be prevented
[5]
  GFP fluorescence intensity of infected brain organoids: substantially reduced GFP fluorescence intensity
  brain organoid growth kinetics (relative organoid size): markedly increased growth kinetics in a dose-dependent manner
  brain organoid size: substantially larger
  prevention of HCMV infection of human brain organoids: can potently prevent
[6]
  prevention of HCMV infection of fibroblasts: unable to prevent
[7]
  inhibition of HCMV infection of epithelial cells: exceptionally high potency
[8]
  neural network activity (MEA profile): largely prevented neural network impairment

B2: 62-11: Mouse monoclonal gH-specific HCMV neutralizing antibody raised against the envelope PC by vaccination (antibody, V domains shown)
VH: QVQLQQPGAELVRPGASVKLSCKASGYTFTSYWMNWVKQRPGQGLEWIGMIDPSDSETHYNQMFKDKATLTVDKSSSTAYMQLSSLTSEDSAVYYCSNGYSSFAYWGQGTLVTVSV
VL: DVQMTQTTSSLSASLGDRVTISCSASQGISNYLNWYQQKPDGTVKLLIYDTSSLHSGVPSRFSGSGSGTDYSLTISNLEPEDIATYYCQQYSKLPYTFGGGTKLEIK
[5]
  GFP fluorescence intensity of infected brain organoids: substantially reduced GFP fluorescence intensity
  brain organoid growth kinetics (relative organoid size): markedly increased growth kinetics in a dose-dependent manner
  brain organoid size: substantially larger
  prevention of HCMV infection of human brain organoids: can potently prevent
[6]
  prevention of HCMV infection of fibroblasts: can potently interfere
[7]
  inhibition of HCMV infection of epithelial cells: can potently interfere
